T1: AP2-HC D1 (Plasmodium falciparum, UniProt Q8IKR9 1316-1374)
T1 sequence: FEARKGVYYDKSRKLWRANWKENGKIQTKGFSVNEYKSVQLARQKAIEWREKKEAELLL


Target: T1, AP2-HC D1
Experiment: gcPBM; about 25 ug protein; PBS, 1% milk, 0.2 mg/ml BSA, salmon testes DNA, 0.03% Triton X-100
Details: tags: N-terminal GST (pGEX-4T-1), kept; label: surface-attached array probe

Binder | binding signal
CACACA_negctrl_site1530 (dsDNA) DNA 1: TATTTTGAAATGGAAAGGATATAGAACTTAAACAAA DNA 2: TTTGTTTAAGTTCTATATCCTTTCCATTTCAAAATA | 9.32 ln median PBM intensity, better of two orientations
CACACA_negctrl_site1319 (dsDNA) DNA 1: ATTTTTTTTTTTTTTTTTTTTTTTTATGAATGTTAT DNA 2: ATAACATTCATAAAAAAAAAAAAAAAAAAAAAAAAT | 9.34 ln median PBM intensity, better of two orientations
CACACA_negctrl_site1293 (dsDNA) DNA 1: TCATATTCCAAAAAAAAAAAAAAAAAAAAAAAAATA DNA 2: TATTTTTTTTTTTTTTTTTTTTTTTTTGGAATATGA | 9.15 ln median PBM intensity, better of two orientations
CACACA_negctrl_site383 (dsDNA) DNA 1: GGAACCATCCAAAAAAAAAAAAAAAATAATAATAAT DNA 2: ATTATTATTATTTTTTTTTTTTTTTTGGATGGTTCC | 9.18 ln median PBM intensity, better of two orientations
CACACA_negctrl_site1253 (dsDNA) DNA 1: TAATATTTCGTTAAGTTTTAAAGAAAAAAAAAAAAA DNA 2: TTTTTTTTTTTTTCTTTAAAACTTAACGAAATATTA | 9.21 ln median PBM intensity, better of two orientations
CACACA_negctrl_site191 (dsDNA) DNA 1: TTGTTCATCTTTTTTTTTTTTTTTTTTTTTTAAATC DNA 2: GATTTAAAAAAAAAAAAAAAAAAAAAAGATGAACAA | 9.2 ln median PBM intensity, better of two orientations
CACACA_negctrl_site1524 (dsDNA) DNA 1: TTTTTTTTTTTTTTTTTTTTACCCCTTTTTCAAAAA DNA 2: TTTTTGAAAAAGGGGTAAAAAAAAAAAAAAAAAAAA | 8.65 ln median PBM intensity, better of two orientations
CACACA_negctrl_site662 (dsDNA) DNA 1: TTGTATTATATTGTATTATGTTTAAATGAAAAAAAA DNA 2: TTTTTTTTCATTTAAACATAATACAATATAATACAA | 9.32 ln median PBM intensity, better of two orientations
CACACA_negctrl_site1718 (dsDNA) DNA 1: TTTTTGCAAAAAGAAATAATTTTATTTTAGTTCGGA DNA 2: TCCGAACTAAAATAAAATTATTTCTTTTTGCAAAAA | 9.16 ln median PBM intensity, better of two orientations
CACACA_negctrl_site1226 (dsDNA) DNA 1: TGTTATTTAAATAATTCTTTTTAAAAGATGAATTAT DNA 2: ATAATTCATCTTTTAAAAAGAATTATTTAAATAACA | 9.21 ln median PBM intensity, better of two orientations
CACACA_negctrl_site1113 (dsDNA) DNA 1: TTTTTTTTTAAAGAAAATAAAAATATGTACTTGACA DNA 2: TGTCAAGTACATATTTTTATTTTCTTTAAAAAAAAA | 9.17 ln median PBM intensity, better of two orientations
CACACA_negctrl_site488 (dsDNA) DNA 1: TTTTTAATAAAATGATTGATAATTATTAAATTAAAA DNA 2: TTTTAATTTAATAATTATCAATCATTTTATTAAAAA | 9.22 ln median PBM intensity, better of two orientations
CACACA_negctrl_site822 (dsDNA) DNA 1: TTTTTTCAATAAATAATCGTATATTGAATAATAATA DNA 2: TATTATTATTCAATATACGATTATTTATTGAAAAAA | 9.23 ln median PBM intensity, better of two orientations
CACACA_negctrl_site1057 (dsDNA) DNA 1: TGATTTTTTTTTTTTTTTTTTTTTTTTTTAGTTTGC DNA 2: GCAAACTAAAAAAAAAAAAAAAAAAAAAAAAAATCA | 9.25 ln median PBM intensity, better of two orientations
CACACA_negctrl_site1354 (dsDNA) DNA 1: TCTTTTTTTTCTTTTTTTTTATTTAAATATCAAGTA DNA 2: TACTTGATATTTAAATAAAAAAAAAGAAAAAAAAGA | 9.2 ln median PBM intensity, better of two orientations
CACACA_negctrl_site388 (dsDNA) DNA 1: TTATTTAAAATTTTTATGCGTATATATATAGGAACA DNA 2: TGTTCCTATATATATACGCATAAAAATTTTAAATAA | 9.3 ln median PBM intensity, better of two orientations
CACACA_negctrl_site819 (dsDNA) DNA 1: TGATTATATAAAAAAAAGAAAAAAAAAAAAAAAAAA DNA 2: TTTTTTTTTTTTTTTTTTCTTTTTTTTATATAATCA | 9.07 ln median PBM intensity, better of two orientations
CACACA_negctrl_site1196 (dsDNA) DNA 1: AAAAATTGAATTTTTTTTTTTTTTTTGAGAAGGAAA DNA 2: TTTCCTTCTCAAAAAAAAAAAAAAAATTCAATTTTT | 9.23 ln median PBM intensity, better of two orientations
CACACA_negctrl_site1514 (dsDNA) DNA 1: GAATAAAAAAAAAAAAAAATTTATTTTATAATAAAA DNA 2: TTTTATTATAAAATAAATTTTTTTTTTTTTTTATTC | 9.25 ln median PBM intensity, better of two orientations
CACACA_negctrl_site585 (dsDNA) DNA 1: TTTTTTTCTTGTTTTAAATAATATACTGGAAAAAAA DNA 2: TTTTTTTCCAGTATATTATTTAAAACAAGAAAAAAA | 8.87 ln median PBM intensity, better of two orientations
CACACA_negctrl_site1343 (dsDNA) DNA 1: TTTTAAAAAAAAAAAAAAAAAAAAAAAAAAAAAAAA DNA 2: TTTTTTTTTTTTTTTTTTTTTTTTTTTTTTTTAAAA | 8.78 ln median PBM intensity, better of two orientations
CACACA_negctrl_site807 (dsDNA) DNA 1: TTTTTTTTTTTTTTTTTTAAACACCTCAAAAAAAAA DNA 2: TTTTTTTTTGAGGTGTTTAAAAAAAAAAAAAAAAAA | 8.83 ln median PBM intensity, better of two orientations

Binder | binding signal
CACACA_negctrl_site718 (dsDNA) DNA 1: TATAACATTTTTTTCAAAATAGCTTTAGAAATAAAG DNA 2: CTTTATTTCTAAAGCTATTTTGAAAAAAATGTTATA | 9.31 ln median PBM intensity, better of two orientations
CACACA_negctrl_site792 (dsDNA) DNA 1: AAAGAAAAAGAAAAAGAAAAATTAGAATATAAAATA DNA 2: TATTTTATATTCTAATTTTTCTTTTTCTTTTTCTTT | 9.29 ln median PBM intensity, better of two orientations
CACACA_negctrl_site34 (dsDNA) DNA 1: TTATGTATATTATAAATTAATACATTTAAATTAATA DNA 2: TATTAATTTAAATGTATTAATTTATAATATACATAA | 9.28 ln median PBM intensity, better of two orientations
CACACA_negctrl_site1042 (dsDNA) DNA 1: ATCAAAAAAAAAAAATTTTTTTTTTTGTTTGTTTCC DNA 2: GGAAACAAACAAAAAAAAAAATTTTTTTTTTTTGAT | 9.33 ln median PBM intensity, better of two orientations
CACACA_negctrl_site1727 (dsDNA) DNA 1: TAACCACAAAAATAAAATCAAAAAAAAAAAAAAAAA DNA 2: TTTTTTTTTTTTTTTTTGATTTTATTTTTGTGGTTA | 8.75 ln median PBM intensity, better of two orientations
CACACA_negctrl_site959 (dsDNA) DNA 1: ATTTTTTTTTAATGCAAAAGGTGATGATCGGTCATA DNA 2: TATGACCGATCATCACCTTTTGCATTAAAAAAAAAT | 9.27 ln median PBM intensity, better of two orientations
CACACA_negctrl_site452 (dsDNA) DNA 1: AATATATGATAATTTTTTTTTTTTTTTTTTAAATAT DNA 2: ATATTTAAAAAAAAAAAAAAAAAATTATCATATATT | 9.23 ln median PBM intensity, better of two orientations
CACACA_negctrl_site273 (dsDNA) DNA 1: TTTTTTTTTTTTTTTTTTTTTTGTGAAACTAAGTAA DNA 2: TTACTTAGTTTCACAAAAAAAAAAAAAAAAAAAAAA | 8.92 ln median PBM intensity, better of two orientations
CACACA_negctrl_site1716 (dsDNA) DNA 1: TTTATAGTTTTAAACAAAGTAATACAAATGTATATA DNA 2: TATATACATTTGTATTACTTTGTTTAAAACTATAAA | 9.34 ln median PBM intensity, better of two orientations
CACACA_negctrl_site19 (dsDNA) DNA 1: TTAAATTCGTCATTTTAAAATAATACAAAAGTTCAA DNA 2: TTGAACTTTTGTATTATTTTAAAATGACGAATTTAA | 9.33 ln median PBM intensity, better of two orientations
CACACA_negctrl_site1520 (dsDNA) DNA 1: TCTTAAATTATGATAAAATATAATAAATAAATAAAT DNA 2: ATTTATTTATTTATTATATTTTATCATAATTTAAGA | 9.33 ln median PBM intensity, better of two orientations
CACACA_negctrl_site143 (dsDNA) DNA 1: ATAAACAGAAAAAAAAAAAAAAAAAAAAAAAAAAAA DNA 2: TTTTTTTTTTTTTTTTTTTTTTTTTTTTCTGTTTAT | 8.89 ln median PBM intensity, better of two orientations
CACACA_negctrl_site292 (dsDNA) DNA 1: AAAAAAAAAAAAAAAAAAAAAAAAAAAAAAAAAAAG DNA 2: CTTTTTTTTTTTTTTTTTTTTTTTTTTTTTTTTTTT | 9.04 ln median PBM intensity, better of two orientations
CACACA_negctrl_site59 (dsDNA) DNA 1: AAAAAAAAAAAAAAAAAAAAAAAAAAAAATAAAAAA DNA 2: TTTTTTATTTTTTTTTTTTTTTTTTTTTTTTTTTTT | 9.2 ln median PBM intensity, better of two orientations
CACACA_negctrl_site1364 (dsDNA) DNA 1: ATTTTTTTTTTTTTTTTTTTTTTTTTTTTTTTTTTT DNA 2: AAAAAAAAAAAAAAAAAAAAAAAAAAAAAAAAAAAT | 9.34 ln median PBM intensity, better of two orientations
CACACA_negctrl_site1410 (dsDNA) DNA 1: TAAAGTACAGGAGTAAATTGAAAAAAAAAAAAAAAA DNA 2: TTTTTTTTTTTTTTTTCAATTTACTCCTGTACTTTA | 9.3 ln median PBM intensity, better of two orientations
CACACA_negctrl_site1657 (dsDNA) DNA 1: TATTACATTATTCAAAAAAATTTATATGGTTATAGG DNA 2: CCTATAACCATATAAATTTTTTTGAATAATGTAATA | 9.24 ln median PBM intensity, better of two orientations
CACACA_negctrl_site1721 (dsDNA) DNA 1: TTATATTTATATGTAATACAAAATAACAAAAAATTT DNA 2: AAATTTTTTGTTATTTTGTATTACATATAAATATAA | 9.33 ln median PBM intensity, better of two orientations
CACACA_negctrl_site1097 (dsDNA) DNA 1: ATATTTTTAGGTGATTATTATTCGGAGAAGCGAATT DNA 2: AATTCGCTTCTCCGAATAATAATCACCTAAAAATAT | 9.32 ln median PBM intensity, better of two orientations
CACACA_negctrl_site1298 (dsDNA) DNA 1: ATATTATCATTTTTTTTAATGGAAAAAAAAAAAAAA DNA 2: TTTTTTTTTTTTTTCCATTAAAAAAAATGATAATAT | 9.12 ln median PBM intensity, better of two orientations
CACACA_negctrl_site1615 (dsDNA) DNA 1: TTTTTTTGCATGAGCAATAAAAAAGGCTTGTTCAAA DNA 2: TTTGAACAAGCCTTTTTTATTGCTCATGCAAAAAAA | 9.03 ln median PBM intensity, better of two orientations
CACACA_negctrl_site18 (dsDNA) DNA 1: TTTTTTTTTCTTCTTTTCAAATTTAAGAAATTATAA DNA 2: TTATAATTTCTTAAATTTGAAAAGAAGAAAAAAAAA | 9.28 ln median PBM intensity, better of two orientations

From article PMC11417369, “DNA sequence and chromatin differentiate sequence-specific transcription factor binding in the human malaria parasite Plasmodium falciparum”
